In patent US20180215829A1 (CRESCENDO BIOLOGICS, published 2018):
Where two headings read alike, the source gives them in different places. Values belong to the binder of their own block, whether it stands above or below them.

Columns and labels:
IL-17RB = target: T1, IL-17RB (UniProt Q9NRM6 18-289, limits assumed); assay: specificity ELISA, antigen coated, anti-His-HRP detection
T1 sequence (looked up): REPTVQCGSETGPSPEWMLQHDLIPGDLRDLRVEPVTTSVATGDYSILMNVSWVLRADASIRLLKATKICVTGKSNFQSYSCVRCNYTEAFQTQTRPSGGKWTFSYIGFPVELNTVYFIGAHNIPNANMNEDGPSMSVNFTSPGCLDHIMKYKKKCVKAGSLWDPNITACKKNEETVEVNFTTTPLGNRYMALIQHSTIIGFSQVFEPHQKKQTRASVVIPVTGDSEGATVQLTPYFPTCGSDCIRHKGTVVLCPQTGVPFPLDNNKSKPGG
Protocol: (§1) The binding ELISA for crude or purified VH was similar to the serum ELISA and phage ELISA, previously described, mostly differing in the final detection steps. Briefly, antigen was immobilised on maxisorb plates (Nunc 443404) by adding 50 ul volumes at 0.1-1 ug/ml in PBS and incubating at 4° C. overnight. Following coating, the antigen solution was aspirated and the plates were washed using PBS (prepared from PBS tablets, Oxoid cat no. BR0014G) supplemented with 0.05% Tween® 20 (sigma P1379), followed by washes with PBS without added Tween®. To block non-specific protein interactions, a solution of 3% skimmed milk powder (Marvel) in PBS was added to the wells and the plate was incubated for at least one hour at room temperature. Dilutions of periplasmic extract or purified VH in 3% Marvel/PBS were prepared in polypropylene tubes or plates and incubated for at least one hour at room temperature prior to transfer to the blocked ELISA plate where a further incubation of at least one hour took place. Unbound protein was then washed away using repetitive washes with PBS/Tween® followed by PBS. A solution of HRP-conjugated anti-His Ab (Miltenyi Biotec, 130-092-785), prepared at 1:1000 dilution in PBS/3% Marvel was then added to each well and a further incubation at room temperature for at least one hour took place. Unbound detection antibody was removed by repeated washing using PBS/Tween® and PBS. The ELISA was then developed using TMB substrate (Sigma cat. no. T0440) and the reaction was stopped after 10 minutes by the addition of 0.5M H₂SO₄ solution (Sigma cat. no. 320501). Absorbances were determined by reading at 450 nm.

IL-17RD = target: T2, IL-17RD (UniProt Q8NFM7 17-299, limits assumed); assay: as above
T2 sequence (looked up): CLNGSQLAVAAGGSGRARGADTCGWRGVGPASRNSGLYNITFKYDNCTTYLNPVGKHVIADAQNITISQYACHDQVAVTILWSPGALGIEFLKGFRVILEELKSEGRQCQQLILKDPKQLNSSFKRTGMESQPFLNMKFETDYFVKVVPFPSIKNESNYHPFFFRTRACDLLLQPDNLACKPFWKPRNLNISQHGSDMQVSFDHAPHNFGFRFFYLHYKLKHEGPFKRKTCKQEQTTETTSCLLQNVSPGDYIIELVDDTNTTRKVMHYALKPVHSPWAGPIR
Protocol: as §1

[1] = target: T3, human IL-17RA on HT1080 cells (human, UniProt Q96F46 33-866); assay: cell-based or functional assay
T3 sequence: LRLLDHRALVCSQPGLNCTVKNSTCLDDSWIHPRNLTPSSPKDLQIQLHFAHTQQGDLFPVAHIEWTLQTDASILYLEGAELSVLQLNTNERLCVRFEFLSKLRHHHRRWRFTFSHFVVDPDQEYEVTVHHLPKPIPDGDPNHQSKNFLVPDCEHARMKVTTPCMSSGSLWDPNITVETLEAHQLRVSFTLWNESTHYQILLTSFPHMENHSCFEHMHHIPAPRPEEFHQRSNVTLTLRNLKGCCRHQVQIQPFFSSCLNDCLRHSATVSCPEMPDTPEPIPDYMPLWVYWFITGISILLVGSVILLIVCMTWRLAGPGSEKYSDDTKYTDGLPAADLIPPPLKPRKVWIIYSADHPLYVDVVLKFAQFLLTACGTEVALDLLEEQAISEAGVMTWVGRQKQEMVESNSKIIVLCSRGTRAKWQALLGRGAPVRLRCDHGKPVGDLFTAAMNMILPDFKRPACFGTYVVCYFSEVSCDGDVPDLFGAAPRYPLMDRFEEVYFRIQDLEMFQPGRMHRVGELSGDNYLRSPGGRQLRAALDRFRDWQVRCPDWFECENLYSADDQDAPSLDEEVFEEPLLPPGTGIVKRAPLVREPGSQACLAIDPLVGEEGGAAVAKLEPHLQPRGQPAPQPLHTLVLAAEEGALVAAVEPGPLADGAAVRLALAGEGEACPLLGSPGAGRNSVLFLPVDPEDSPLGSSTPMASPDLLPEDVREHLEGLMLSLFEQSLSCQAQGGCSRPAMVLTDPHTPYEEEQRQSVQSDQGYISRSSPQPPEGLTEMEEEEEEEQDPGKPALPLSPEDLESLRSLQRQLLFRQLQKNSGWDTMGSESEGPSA

[2] = target: T4, recombinant human IL-17RA Fc fusion protein (R&D Systems 177-IR-100) (human, UniProt Q96F46 33-320); assay: BIAcore T200 single-cycle kinetics, IL-17RA-Fc captured on protein G chip, VH as analyte
T4 construct: Bought protein; not shown: Fc domain of human IgG1
T4 sequence: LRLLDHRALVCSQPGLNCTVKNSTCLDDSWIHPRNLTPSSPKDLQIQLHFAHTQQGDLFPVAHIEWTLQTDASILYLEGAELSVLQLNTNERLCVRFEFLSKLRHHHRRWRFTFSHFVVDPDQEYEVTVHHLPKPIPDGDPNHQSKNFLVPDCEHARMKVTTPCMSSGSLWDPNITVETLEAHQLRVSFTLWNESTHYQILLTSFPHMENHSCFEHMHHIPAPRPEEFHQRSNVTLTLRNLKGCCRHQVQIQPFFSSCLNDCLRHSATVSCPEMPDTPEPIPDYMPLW
Protocol: (§2) Binding kinetics of anti-IL-17RA VH antibodies were measured on a BIAcore® T200 instrument. For IL-17RA, first a protein G chip was prepared by diluting protein G to 20 ug/ml in acetate buffer, pH 4 (BIAcore®, cat# BR-100-49) and then coupled 1200 RU to a CM5 Series S chip using amine coupling chemistry. This surface was then used to capture IL-17RA Fc fusion protein from solution: IL-17RA at 10 ug/ml in HBS injected for 10 seconds at 30 ul/min flow rate would capture approximately 100-150 RU of IL-17RA onto the protein G surface.
(§3) Binding kinetics of anti-IL-17RA VH antibodies were determined by single-cycle kinetics. VH antibodies were prepared in dilution series (typically 1:3 dilution series starting with 100 nM VH at the highest concentration), and then injected over the antigen coated surfaces and also a blank surface, starting with the lowest concentration of VH and then working progressively up to the highest concentration. VH binding kinetics were then determined from the (blank subtracted) sensorgram traces using 1:1 binding models and BIAevaluation software.

[3] = target: T3, human IL-17RA on HT1080 cells; assay: cell-based or functional assay; remark: listed apart in the source
[4] = target: T4, recombinant human IL-17RA Fc fusion …; assay: IL-17RA ligand inhibition ELISA (FIG. 10B): VH competes with IL-17A for coated IL-17RA-Fc
Protocol: (§4) VH, both purified and crude periplasmic extracts, were also tested for their ability to inhibit the interaction of IL-17A with recombinant IL-17RA-Fc. […] Following washing of excess coating antigen, as described above, the wells of the plate were incubated with 3% Marvel/PBS to block non-specific protein interactions. VH preparations, crude periplasmic extracts or purified VH, or suitable controls, were prepared with 1 nM recombinant IL-17A (Peprotech, cat# AF-200-17) in 3% skimmed milk powder/PBS solution in polypropylene plates or tubes. The mixture was then transferred to the assay plate and incubated for 1 hour at room temperature. Excess protein was removed by washing and bound IL-17A was detected by incubation with biotinylated anti-IL-17A Mab (R & D Systems, cat BAF317) followed by the addition of neutravidin-HRP (Pierce, cat#31030) and TMB substrate (Sigma, cat# T0440). The TMB reaction was stopped by addition of 0.5M H₂SO₄ and absorbances were measured at 450 nm in a plate reader.

[5] = target: T4, recombinant human IL-17RA Fc fusion …; assay: receptor/ligand biochemical inhibition ELISA: VH competes with 1 nM IL-17A for coated IL-17RA-Fc
Protocol: as §4

[6] = target: T3, human IL-17RA on HT1080 cells; assay: cell-based or functional assay; remark: listed apart in the source
[7] = target: T4, recombinant human IL-17RA Fc fusion …; assay: BIAcore T200 single-cycle kinetics, IL-17RA-Fc captured on protein G chip, VH as analyte; remark: listed apart in the source
Protocol: as §2, §3

[8] = target: T4, recombinant human IL-17RA Fc fusion …; assay: receptor/ligand biochemical inhibition ELISA: VH competes with 1 nM IL-17A for coated IL-17RA-Fc; remark: listed apart in the source
Protocol: as §4

B1: VH clone 1.2 (VHH)
VHH: EVQLVESGGGLVQPGRSLRLSCAASGFTFDDYAMHWVRQAPGKGLEWVSGISWNSGRMDYADSVKGRFTISRDNAKNSLYLQMNSLRAEDTALYYCAKEKGLGYCRGGSCSYFDYRGQGTLVTVSS
notes: Human VH single domain antibody, no light chain; Family 1; also called VH 1.2
binding result (IL-17RB): no binding
binding result (IL-17RD): no binding
IC50 (nM), cell-based assay [1]: 141 nM

B2: VH clone 1.1 (VHH)
VHH: QVQLVESGGGLVQPGRSLRLSCAASGFTFDDYAMHWVRQAPGKGLEWVSGISWNSGRMDYADSVKGRFTISRDNAKKSLYLQMNSLRAEDTAMYYCAKEKGLGFCRGGSCSYFDYRGQGTLVTVSS
notes: Human VH single domain antibody, no light chain; Parent clone of family 1; also called VH 1.1
Kd [2]: 0.063 nM
binding result (IL-17RB): no binding
binding result (IL-17RD): no binding
Cell assay IC50 [3]: 4.7 nM
IC50 (nM), cell-based assay [1]: 39 nM

B4: VH clone 4.1 (VHH)
VHH: QVQLVQSGAEVKKPGASVKVSCKASGYPFTNYDISWIRQATGQSLEWMGWMNPDSGNTGYAQKFQGRVTMTRNTSISTAYMELSGLRSEDTAVYFCARGGYNAWRTDYWGQGTLVTVSS
notes: Human VH single domain antibody, no light chain; Parent clone of family 4
Kd [2]: 4.5 nM
Cell assay IC50 [3]: 282 nM

B5: VH clone 4.55 (VHH)
VHH: QVQLQQSGAEVKKPGASVKVSCKASGYTFTSYDISWVRQATGQSLEYMGWMNPNSGNTGYAQKFQGRVTMTRNTSISTAYMELSSLRSEDTAVYYCARGGITEWRRDYWGQGTLVTVSS
notes: Human VH single domain antibody, no light chain; Family 4
IC50 [4]: 6930 nM

B9: VH clone 2.3 (VHH)
VHH: QVQLVQSGAEVKKPGASVKVSCKASGYPFTSYDINWVRQATGRSLEWMGWMNPTSGDTVYAQKFQDRVTMTRNTSISTAYMELSSLRSEDTAVYFCARGRRDNWKNNYWGQGTLVTVSS
notes: Human VH single domain antibody, no light chain; Optimised variant of clone 2.1
Cell assay IC50 [6]: 118 nM
Kd [7]: 2.5 nM
koff [7]: 0.00137 s⁻¹
kon [7]: 555000 M⁻¹ s⁻¹
IC50 [8]: 1.3 nM

B10: VH clone 3.1 (VHH)
VHH: EVQLVESGGGLVQPGGSLRLSCAASGFPFSTYWMRWLRQAPGKGLEWVANINQDGSEKYYVDSVKGRFTISRDNAKSSLFLQMNSLRAEDTAVYYCARGWESGWFEPWGQGTLVTVSS
notes: Human VH single domain antibody, no light chain; Parent clone of family 3; also called VH 3.1
Kd [2]: 9.6 nM
IC50 [5]: 11 nM

B11: VH clone 3.20 (VHH)
VHH: QVQLVESGGGLVQPGGSLRLSCAASGFPFSTYWMRWLRQAPGKGLEWVANIKQDGSEKYYVDSVKGRFTISRDNAKNSLFLQMNSLRAEDTAVYYCARGWESGWFEPWGQGTLVTVSS
notes: Human VH single domain antibody, no light chain; Family 3; also called VH 3.20
IC50 [4]: 22 nM

Continued, values first:

Kd [2]: 31 nM
Cell assay IC50 [3]: 233 nM
B3: VH clone 6.1 (VHH)
VHH: EVQLVESGGGLVKPGGSLRLSCAASGFTFSDDYMSWLRQAPGKGLEWVSYISSSGSTIYYADSVKGRFTISRDNAKNSLYLQMNSLRAEDSAVYYCARKDITNIAVGSLGYWGQGTLVTVSS
notes: Human VH single domain antibody, no light chain; Parent clone of family 6

binding result (IL-17RB): no binding
binding result (IL-17RD): no binding
B6: VH 62A4 (VHH)
VHH: QVQLVESGGGLVQPGRSLTLSCTASGFTFHDYAMHWVRQPPGGGLEWVAGVSWNGNNVGYADSVKGRFTISRDNAKKSLYLQMNSLRSEDTALYYCAKGGMGSGSHPDSFSTWGQGTMVTVSS
notes: VH single domain

Kd [2]: 370 nM
Cell assay IC50 [3]: 1840 nM
B7: VH clone 7.1 (VHH)
VHH: EVQLVESGGGLVQPGGSLRLSCAASGFTFSNYWMSWVRQARGKGLEWVANIRPDGSERYYVDSVKGRFTISRDNAKNSLYLQMSSLRAEDTAVYYCARSRDWGSRAFDIWGQGTMVTVSS
notes: Human VH single domain antibody, no light chain; Parent clone of family 7

Kd [2]: 41 nM
IC50 [5]: 80 nM
Cell assay IC50 [3]: 73 nM
B8: VH clone 5.1 (VHH)
VHH: EVQLVESGGGLVKPGGSLRLSCEASGFTFSDFDMSWIRQAPGKGLEWVAYISSSDSTIYYRDSVKGRFTISRDNAKNSLYLQMNSLRAEDTAVYYCSRNGARYNWNYGDFQHWGQGTLVTVSS
notes: Human VH single domain antibody, no light chain; Parent clone of family 5
